In patent publication US20080193450A1 (ISTITUTO SUPERIORE DI SANITA, published 2008):

B1: ADR4-10 (other)
chain: EVQLLESGGGLVQPGGSLRLSCAASGVSVSAYTMSWVRQAPGKGLEWVSAILKKNGSTYYADSVKGRFTISRDNSKNTLYLQMNSLRAEDTAVYYCAGRPSVTFGGPGKRYDYHFQYWGQGTLVTVSS
B2: ADR4-9 (other)
chain: EVQLLESGGGLVQPGGSLRLSCAASGVRLSHQVMGWVRQAPGKGLEWVSAIRSSDGSTYYADSVKGRFTISRDNSKNTLYLQMNSLRAEDTAVYYCAGWRSAKSQMHYWGQGTLVTVSS
B3: ADR4-11 (other)
chain: EVQLLESGGGLVQPGGSLRLSCAASGVIFTDQTMGWVRQAPGKGLEWVSAIKTRDGSTYYADSVKGRFTISRDNSKNTLYLQMNSLRAEDTAVYYCARFLRPNASRGSAREAQIHSWGQGTLVTVSS
B4: ADR4-8 (other)
chain: EVQLLESGGGLVQPGGSLRLSCAASGFSLSYKVMGWVRQAPGKGLEWVSAINRENGSTYYADSVKGRFTISRDNSKNTLYLQMNSLRAEDTAVYYCAGFARRGAPHSASVEFWGQGTLVTVSS
B5: ADR4-4 (other)
chain: EVQLLESGGGLVQPGGSLRLSCAASGFTFLDYQMSWVRQAPGKGLEWVSGISRSGNKTKYADSVKGRFTISRDNSKNTLYLQMNSLRAEDTAVYYCAKWAGLNRHDFDYWGQGTLVTVSS
B6: ADR4-7 (other)
chain: EVQLLESGGGLVQPGGSLRLSCAASGYSVTYQNMAWVRQAPGKGLEWVSTITVPNGSTYYADSVKGRFTISRDNSKNTLYLQMNSLRAEDTAVYYCAGLGEVLRDGNANVQFWGQGTLVTVSS
B7: ADR4-3 (other)
chain: EVQLLESGGGLVQPGGSLRLSCAASGFTFAQYRMAWVRQAPGKGLEWVSQINAQGTQTGYADSVKGRFTISRDNSKNTLYLQMNSLRAEDTAVYYCAKWVGGARYTFDYWGQGTLVTVSS
B8: ADR4-5 (other)
chain: EVQLLESGGGLVQPGGSLRLSCAASGDRISSEFMGWVRQAPGKGLEWVSAIYKPNGSTYYADSVKGRFTISRDNSKNTLYLQMNSLRAEDTAVYYCARGRARRTESTYQLRYWGQGTLVTVSS
B9: ADR4-6 (other)
chain: EVQLLESGGGLVQPGGSLRLSCAASGFRVSNYDLTWVRQAPGKGLEWVSTISATNGSTYYADSVKGRFTISRDNSKNTLYLQMNSLRAEDTAVYYCAAVTWWLLRHNDNLGFWGQGTLVTVSS
B10: ADR4-12 (other)
chain: EVQLLESGGGLVQPGGSLRLSCAASGDTVSSKAMAWVRQAPGKGLEWVSGIFIPNGSTYYADSVKGRFTISRDNSKNTLYLQMNSLRAEDTAVYYCAAKQRAVLSRWGSSTEFGSWGQGTLVTVSS
B11: ADR4-13 (other)
chain: EVQLLESGGGLVQPGGSLRLSCAASGFSISYKNMAWVRQAPGKGLEWVSAIKAANGSTYYADSVKGRFTISRDNSKNTLYLQMNSLRAEDTAVYYCATGSQKKRTYTFDFWGQGTLVTVSS

Molecular target: native, highly purified SAP2 preparation (Candida albicans, UniProt P0CS83 57-398)
Sequence (P0CS83 57-398 limits assumed): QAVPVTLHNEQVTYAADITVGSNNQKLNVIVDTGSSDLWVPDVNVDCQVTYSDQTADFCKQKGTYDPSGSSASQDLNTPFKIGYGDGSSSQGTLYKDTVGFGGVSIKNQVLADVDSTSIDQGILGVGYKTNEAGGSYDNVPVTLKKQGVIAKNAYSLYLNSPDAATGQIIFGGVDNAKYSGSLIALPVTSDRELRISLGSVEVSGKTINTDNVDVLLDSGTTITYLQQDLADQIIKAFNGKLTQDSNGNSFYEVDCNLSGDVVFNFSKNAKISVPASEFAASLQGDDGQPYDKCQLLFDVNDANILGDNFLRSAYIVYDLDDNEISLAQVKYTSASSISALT
Assay: cell-based or functional assay

Row | Molecule | % Inhibition (BSA degradation, proteinase enzyme assay) | ΔOD/ml/min (BSA degradation, proteinase enzyme assay)
1 | pepstatin A (peptide) | 100% | 0.36 ΔOD/ml/min
2 | B1 | 13% | 0.83 ΔOD/ml/min
3 | B2 | 5% | 0.93 ΔOD/ml/min
4 | B3 | 29% | 0.8 ΔOD/ml/min
5 | B4 | 0% | 1 ΔOD/ml/min
6 | B5 | 32% | 0.76 ΔOD/ml/min
7 | B6 | 61% | 0.7 ΔOD/ml/min
8 | B7 | 40% | 0.66 ΔOD/ml/min
9 | B8 | 0% | 1 ΔOD/ml/min
10 | B9 | 78% | 0.5 ΔOD/ml/min
11 | B10 | 60% | 0.6 ΔOD/ml/min
12 | B11 | 82% | 0.46 ΔOD/ml/min
